Reference: US20240009285A1 (REGENERATIVE RESEARCH FOUNDATION, published 2024)

What was measured:
[1] = molecular target: GFP-Tau-(0N4R) (human, UniProt P10636-6 1-383); test: cell-based or functional assay
[2] = molecular target: human α-synuclein protein (human, UniProt P37840 1-140); test: surface plasmon resonance (SPR); no numbers given

Chain of GFP-Tau-(0N4R) (P10636 other isoform, or with tags, fused parts or gaps): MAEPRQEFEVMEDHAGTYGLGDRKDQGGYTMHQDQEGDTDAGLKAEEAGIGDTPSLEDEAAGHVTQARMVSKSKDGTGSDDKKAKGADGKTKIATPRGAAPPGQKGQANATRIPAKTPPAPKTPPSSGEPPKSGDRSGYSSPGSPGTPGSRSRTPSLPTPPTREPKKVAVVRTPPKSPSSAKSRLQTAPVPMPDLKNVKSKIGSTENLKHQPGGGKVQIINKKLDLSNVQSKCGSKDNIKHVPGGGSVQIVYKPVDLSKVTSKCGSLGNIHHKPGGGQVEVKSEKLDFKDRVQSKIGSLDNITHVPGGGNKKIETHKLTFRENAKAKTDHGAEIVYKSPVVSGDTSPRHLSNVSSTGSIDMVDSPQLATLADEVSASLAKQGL

Binder	reduction of total tau vs EV-CON (western blot) [1]	binding result [2]
scFv-V-hPEST-D433A (scFv, V domains shown) VH: QVQLVESGGGLVKPGGSLRLSCAASGFTFSSYAMSWVRQAPGKGLEWVAAISGSGDNTYYADSVKGRFTISRDNSENTVHLQMAGLRAEDTALYFCAKDGPEVGNPGGYFDFWGRGTLVTVSS	~40%	–
scFv-N-hPEST-D433A (scFv, V domains shown) VH: QVQLVESGGGLVKPGGSLRLSCAASGFTFSSYAMSWVRQAPGKGLEWVAAISGSGDNTYYADSVKGRFTISRDNSENTVHLQMAGLRAEDTALYFCAKDGPAVGNPGGYFDFWGRGTLVTVSS	~40%	–
scFv-N-hPEST-S445A (scFv, V domains shown) VH: QVQLVESGGGLVKPGGSLRLSCAASGFTFSSYAMSWVRQAPGKGLEWVAAISGSGDNTYYADSVKGRFTISRDNSENTVHLQMAGLRAEDTALYFCAKDGPAVGNPGGYFDFWGRGTLVTVSS	~40%	–
VHH-4C-N77D (VHH, Unfused nanobody as named in the SPR statement; also called VHH-N77D) VHH: VQLVESGGGGLVQPGGSLRLSCVTPGGIFSDYAMGWYRQAPGKQRELVADITVSDTTRYSDPVKGRFTISRDNAKDMVYLQMNSLKPEDAAIYTCNAQKWEDRYGSSERYDYWGQGTQVTVSS	–	binds
